The test system of test [1] is N^AM4C. Description: NMR line-shape simulation, N^AM4C peptide titration (three-state). The test is classed as binding. The following applies: three-state model, 310 K. How it is done:
(§1) The peptides were dissolved in NMR buffer to generate 10 mM stocks that were titrated in 0.1 molar equivalents steps to 250 μM dArmRPs in NMR buffer up to 1.5 equivalents, and then in 0.5 equivalents steps up to 5.5 equivalents. For each step, a [^15N,^1H]-HSQC experiment was recorded at 310 K with the other parameters described above.
The change of line-shape and peak positions in the [^15N,^1H]-HSQC spectra upon adding (KR)n was simulated using in-house written Mathematica notebooks. In principle, for the simple two-state process of ligand binding, described only by single kon and koff rates and the concentrations used, the modified Bloch McConnell equations[49] can be used. […]
For simplicity, the same transverse relaxation rate R2 was assumed for all protein states and the chemical shift of the partially unbound state PL^* to be the same as for the free protein, that is ΩP . ΩPL is the chemical shift of the bound state and L the equilibrium concentration of the free peptide. […] Thereby the k1,on and k1,off rate constants were chosen such that their ratio was in the range of the measured or predicted Kd values[21] and that all signals during the titration could be fitted well (see text, Supplementary Fig. 12). […]

The subject of test [2] is N^AM4C. The experiment in a line: [15N,1H]-HSQC peptide titration, N^AM4C/NM4C. The test is classed as binding. The settings on record: 310 K, 250 μM dArmRP. How it is done: All experiments were recorded on Bruker Neo 600 or 700 MHz spectrometers, employing cryogenically cooled or Prodigy ^1H, ^13C, ^15N triple-resonance probes. Pulse field gradients with coherence selection[46] were applied to all heteronuclear ^15N,^1H experiments using standard Bruker pulse sequences, together with the Rance-Palmer method for sensitivity enhancement. All spectra were processed in TOPSPIN using cosine-bell-shifted window functions prior to Fourier transformation, and analyzed in CARA[48]. Chemical shift assignments were obtained from triple-resonance and HCCH-type 3D NMR experiments using the standard Bruker pulse-program library. […]
as §1
Assignments of the spectra required for CSPs were performed through segmental labeling as detailed in the Results section. […] CSPs were calculated using the following formula[50]9 δHf−δHb/1^2+δNf−δNb/4^2 where δH and δN represent the chemical shifts in the proton and nitrogen dimensions, respectively, while f and b represent the free and bound states, respectively. […]

The target of a further test is mCherry-tagged N^YM7C. Description: FRET or BRET; FRET-based stopped-flow assay; 20 nM GFP-tagged peptide mixed 1:1 (volume) with 50-250 nM mCherry-tagged NM7C for kon; koff from competition: preincubated 50 nM tagged peptide and 40 nM tagged protein mixed 1:1 with 2 uM unlabeled competitor. (In general: BRET reads energy transfer from a luciferase to a nearby fluorophore.)

The target in test [3] is N^AM4C designed Armadillo repeat protein (dArmRP) with the redesigned N^A (artificial) cap, four identical internal modules M and the C cap. Description: NMR titration; [15N,1H]-HSQC chemical shift perturbations; 10 mM peptide stock titrated in 0.1 equivalent steps to 250 uM dArmRP in NMR buffer up to 1.5 equivalents, then 0.5 equivalent steps up to 5.5 equivalents; 310 K.

Test [4] has the same target. The experiment in a line: NMR titration; line-shape simulation of traces from [15N,1H]-HSQC titrations; three-state model P + L = PL = PL*; parameters adjusted by visual inspection, k1,on and k1,off chosen so that their ratio fits the measured or predicted Kd.
Test [5] addresses N^YM7C designed Armadillo repeat protein (dArmRP) with the N^Y cap, seven identical internal modules M and the C cap. The experiment in a line: NMR titration; [15N,1H]-HSQC chemical shift perturbations; 10 mM peptide stock titrated in 0.1 equivalent steps to 250 uM dArmRP in NMR buffer up to 1.5 equivalents, then 0.5 equivalent steps up to 5.5 equivalents; 310 K.
In test [6] the target is N^AM7C designed Armadillo repeat protein (dArmRP) with the N^A cap, seven identical internal modules M and the C cap. Description: NMR titration; line-shape simulation of traces from [15N,1H]-HSQC titrations; three-state model P + L = PL = PL*; parameters adjusted by visual inspection, k1,on and k1,off chosen so that their ratio fits the measured or predicted Kd.

In the case of (Lys-Arg)4 [(KR)4], in the test on N^AM4C [1], the “k2 (isomerization of bound state, PL to PL*)” value was 30 s^–1 and the “k2’ (PL* to PL)” value is listed as 700 s^–1. In the test on N^AM4C [2], the “peptide required for full saturation” value turned out to be 1.3 equiv.
One may read the koff as a measure of how fast the partners let go of each other. A lower koff goes with a long-lived complex. Molecule KRKRKRKR [GFP-tagged (KR)4 peptide] gave a koff with mCherry-tagged N^YM7C of 0.23 s⁻¹.
With Ac-KRKRKRKR-OH [(KR)4 peptide, (Lys-Arg)4 octapeptide], the equivalents of peptide required for full saturation in test [3] came to 1.3 equiv. Further, in test [4], the k1,off (step 1, overall unbinding; line-shape simulation parameter) is 300 s^–1; the k1,on (step 1, overall binding; line-shape simulation parameter) was 1e+09 M⁻¹ s⁻¹; the k2 (step 2, exchange in the bound state, PL to PL*) was 30 s^–1; the k2’ (step 2, exchange in the bound state, PL* to PL) was 700 s^–1.
In the case of Ac-KRKRKRKRKRKRKR-OH [(KR)7 peptide], the equivalents of peptide required for full saturation in test [3] was 1 equiv. In test [5], the equivalents of peptide required for full saturation amounted to 1 equiv. Moreover, in test [6], the k1,off (step 1, overall unbinding; line-shape simulation parameter) was 0.0003 s^–1; the k1,on (step 1, overall binding; line-shape simulation parameter) is 6.2e+08 M^–1·s^–1; the k2 (step 2, exchange in the bound state, PL to PL*) is 30 s^–1; the k2’ (step 2, exchange in the bound state, PL* to PL) was 100 s^–1.
